In paper PMC7865296, “T Cell Mediated Conversion of a Non-Anti-La Reactive B Cell to an Autoreactive Anti-La B Cell by Somatic Hypermutation †” (International Journal of Molecular Sciences, 2021):
Numbering of substitutions follows the chain as printed.

Key:
[1] = molecular target: T1, eukaryotic human La protein of HeLa cells (Homo sapiens (Human)., UniProt P05455); test: SDS-PAGE and immunoblotting; total extracts of human HeLa or mouse 3T3 cells, denatured on the blot; probed with hybridoma supernatants; conditions: partners not purified
T1 construct: human La/SS-B autoantigen, endogenous in HeLa cells; also called hLa; source: endogenous, HeLa total extract; endogenous, fixed HeLa cells
T1 sequence (P05455 whole entry): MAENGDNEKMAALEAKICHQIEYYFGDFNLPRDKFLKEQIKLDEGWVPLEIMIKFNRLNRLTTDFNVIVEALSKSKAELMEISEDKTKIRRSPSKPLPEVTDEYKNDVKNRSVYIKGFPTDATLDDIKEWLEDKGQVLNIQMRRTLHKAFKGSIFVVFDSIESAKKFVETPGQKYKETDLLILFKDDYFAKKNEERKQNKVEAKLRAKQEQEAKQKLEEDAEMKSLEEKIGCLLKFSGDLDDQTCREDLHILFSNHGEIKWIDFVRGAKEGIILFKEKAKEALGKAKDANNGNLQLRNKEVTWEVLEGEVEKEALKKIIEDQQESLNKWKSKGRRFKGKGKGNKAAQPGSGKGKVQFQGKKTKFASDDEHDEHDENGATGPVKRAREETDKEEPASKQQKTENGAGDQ

[2] = molecular target: T2, GFP-La fusion protein La_(10–100) (Homo sapiens (Human)., UniProt P05455); test: SDS-PAGE and immunoblotting; total extracts of HeLa cells transfected with GFP-La fusion constructs (N- or C-terminally truncated La); probed with anti-La mabs; anti-GFP as control; conditions: partners not purified
T2 construct: human La protein, residues 10-100 (La motif region); cloned into pEGFP-C2; pEGFP-C2 places GFP at the N-terminus of the insert (surmise); also called final La deletion mutant of Group 2; source: HeLa, transfected, in total extract
T2 sequence (P05455 10-100): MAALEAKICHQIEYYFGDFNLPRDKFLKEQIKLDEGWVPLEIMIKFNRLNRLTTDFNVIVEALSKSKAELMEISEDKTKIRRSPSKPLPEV

[3] = molecular target: T3, recombinant human La protein, full length (aa 1-408), His-tagged (Homo sapiens (Human)., UniProt P05455); test: SDS-PAGE and immunoblotting; human (rhLa) or mouse (rmLa) La protein recombinantly expressed in E. coli, denatured on the blot; probed with hybridoma supernatants; conditions: one partner purified
T3 construct: also called rhLa; hLa; not shown: His tag, C-terminal, kept
T3 sequence (P05455 whole entry, the tested form may be a part): as the sequence (P05455 whole entry) above

[4] = molecular target: T4, recombinant mouse La protein (Mus musculus (Mouse)., UniProt P32067); test: as above; conditions: one partner purified
T4 construct: mouse La protein, open reading frame cloned into pET28b; also called rmLa; mLa (recombinant)
T4 sequence (P32067 whole entry): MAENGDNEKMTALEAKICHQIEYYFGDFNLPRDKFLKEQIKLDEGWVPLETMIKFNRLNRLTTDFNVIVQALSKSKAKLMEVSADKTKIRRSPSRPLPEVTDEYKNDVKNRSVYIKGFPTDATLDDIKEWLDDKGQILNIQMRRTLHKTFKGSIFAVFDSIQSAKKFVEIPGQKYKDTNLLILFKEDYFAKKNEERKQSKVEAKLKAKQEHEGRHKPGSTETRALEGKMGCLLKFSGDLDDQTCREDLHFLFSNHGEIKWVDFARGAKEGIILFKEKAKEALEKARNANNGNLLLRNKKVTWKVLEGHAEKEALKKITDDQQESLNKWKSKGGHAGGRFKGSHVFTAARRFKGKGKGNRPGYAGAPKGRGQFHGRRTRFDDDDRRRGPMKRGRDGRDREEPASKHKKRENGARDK

Ro60 antigen = molecular target: T5, Ro60 antigen (Homo sapiens (assumed), UniProt P10155); test: ELISA; hybridoma supernatants on Ro60 antigen; performed as in ref. 59
T5 construct: Ro60 (Ro/SS-A) antigen used in the anti-Ro ELISA; also called Ro/SS-A
T5 sequence (P10155 whole entry): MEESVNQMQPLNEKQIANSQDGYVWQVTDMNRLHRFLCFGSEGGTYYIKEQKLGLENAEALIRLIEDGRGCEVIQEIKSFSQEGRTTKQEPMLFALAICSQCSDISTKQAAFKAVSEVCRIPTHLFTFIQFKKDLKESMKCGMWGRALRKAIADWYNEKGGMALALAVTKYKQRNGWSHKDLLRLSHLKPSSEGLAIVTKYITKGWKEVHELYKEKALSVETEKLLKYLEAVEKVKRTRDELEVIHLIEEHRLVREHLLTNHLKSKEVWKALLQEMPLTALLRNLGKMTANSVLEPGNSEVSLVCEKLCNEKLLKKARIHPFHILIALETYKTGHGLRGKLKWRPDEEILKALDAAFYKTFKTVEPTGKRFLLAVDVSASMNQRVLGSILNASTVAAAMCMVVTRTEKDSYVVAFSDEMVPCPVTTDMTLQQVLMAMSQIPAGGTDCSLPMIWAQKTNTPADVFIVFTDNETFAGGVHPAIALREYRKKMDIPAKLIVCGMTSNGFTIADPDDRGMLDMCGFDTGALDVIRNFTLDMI

[5] = molecular target: T6, GFP-La fusion protein La_(107–200) (Homo sapiens (Human)., UniProt P05455); test: SDS-PAGE and immunoblotting; total extracts of HeLa cells transfected with GFP-La fusion constructs (N- or C-terminally truncated La); probed with anti-La mabs; anti-GFP as control; conditions: partners not purified
T6 construct: cloned into pEGFP-C2; pEGFP-C2 places GFP at the N-terminus of the insert (surmise); also called final La deletion mutant of Group 1; source: HeLa, transfected, in total extract
T6 sequence (P05455 107-200): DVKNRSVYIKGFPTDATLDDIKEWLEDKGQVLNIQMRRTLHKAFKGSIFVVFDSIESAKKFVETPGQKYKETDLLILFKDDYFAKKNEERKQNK

[6] = molecular target: T7, His-tagged La deletion mutant La_(278–408) (Homo sapiens (Human)., UniProt P05455); test: SDS-PAGE and immunoblotting; His-tagged full length La and N- and C-terminally truncated La deletion mutants from E. coli (nickel-NTA); probed with 16C; 10-fold the usual amount of protein applied; conditions: one partner purified
T7 construct: cloned into pET28a
T7 sequence (P05455 278-408, stated change not applied): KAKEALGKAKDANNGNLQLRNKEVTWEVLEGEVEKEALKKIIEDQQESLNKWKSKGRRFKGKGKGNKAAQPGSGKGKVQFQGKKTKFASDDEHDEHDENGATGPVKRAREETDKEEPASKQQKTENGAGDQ

[7] = molecular target: T3, recombinant human La protein, full …; test: SDS-PAGE and immunoblotting; recombinant human La (rhLa) on the blot; probed with purified recombinant 312B Ig4 or 312B ge Ig4; conditions: both partners purified

B1: anti-La monoclonal antibody 27E (antibody, V domains shown)
VH: EVQLQESGAELARPGASVKLSCKASGYSFRSYGINWVKQRTGQGLEWIGEIYPGSGTTFYNEKFRGKATLTADKSSSTAYMQLKSLTSEDSAVYFCARHGGYPFYFDYWGQGTTLTVSS
VL: DIVMTQSPAIMSASPGEKVTISCSASSSVSYMYWYQQKPGSSPKPWIYRTSNLASGVPARFSGSGSGTSYSLTISSMEAEDAATYYCQQYHSYPRTFGGGTKLEIK
notes: variable heavy chain of 27E; variable light chain of 27E; IgG2b; Vl aa4, JK1; From the human La transgenic mouse; also called Group 2 anti-La mab (27E); source: hybridoma cell culture supernatant
B1: binds [1]; binds [2]; binds [3].

B2: anti-La monoclonal antibody 312B (antibody, V domains shown)
VH: QVKLQESGAELMKPGSSVKFSCKAAGYTFTDYWIEWLKQRPGHGLEWIGEILPGSVSIKYNEKFKGKATFTADTSSNTAYMQLSSLTSEDSAVYYCARSRSIYDGYFYYWGQGTTLTVSS
VL: DIVMTQSTASLSASVGETVTITCRASENIYTYLAWYQQKQGKSPQLLVYNAKTLAEGVPSRFSGSGSGTQFSLRINSLQPEDFGSYYCQHHYGTPYTFGGGTKLEIK
notes: IgG1; Vl 12-44, JK2; From the human La transgenic mouse; source: hybridoma cell culture supernatant
B2: binds [1]; binds [2]; binds [3]. B2: binds [4].

B3: IgM type anti-Ro60 monoclonal antibody 312G (antibody, V domains shown)
VH: EVQLEESGPGLVAPSQSLSITCTVSGFSLSRYSVHWVRQPPGKGLEWLGMIWGGGSTDYNSALKSRLSISKDNSKSQVFLKMNSLQTDDTAIYYCATSNWPYAMDYWGQGTSVTVSS
VL: DIVMTQSPAIMSASPGEKVTMTCSASSSVSYMHWYQQKSGTSPKRWIYDTSKLASGVPARFSGSGSGTSYSLTISSMEAEDAATYYCQQWSSNPPTFGAGTKLELK
notes: variable heavy chain of 312G; variable light chain of 312G; IgM; Vl kk4, JK5; From the human La transgenic mouse; called polyreactive; also called anti-Ro mab (312G); anti-Ro60 mab; source: hybridoma cell culture supernatant
B3: no binding [3]; binds (Ro60 antigen).

B4: anti-La monoclonal antibody 24BG7 (antibody, V domains shown)
VH: QVQLQQSGAELARPGASVKLSCKASGYSLTNYGISWVKQRTGQGLEWIGEIYRGSGNSYYNEKFKGKASLTADKSSSTAYMQLSSLTSEDSAVYFCARGGLSFAYWGQGTLVTVSA
VL: B3 VL with D1Q, M4L, S30T, S76T, S91I, A99G, L105I
notes: variable heavy chain of 24BG7; variable light chain of 24BG7; IgG1; Vl kk4, JK2; From the human La transgenic mouse; also called Group 1 anti-La mab (24BG7); source: hybridoma cell culture supernatant
B4: binds [5].

B5: anti-La monoclonal antibody 22A (antibody, V domains shown)
VH: QVKLEESGPELVKPGAPVKISCKTSGYTFTNYYIYWVKQRPGQGLEWIGYIYPGNGGTAYNQKFKDKATLTADNPSNTAYMQLSSLTSEDSAVYLCARRGALGYYFDYWGQGTTLTVSS
VL: QIVLTQSPAIMSASPGEKVTMTCSASSSVSYMYWYQQKSGTSPKRWIYDTSKLASGVPARFSGSGSGTSYSLTISSMEAEDAATYYCQQWSSNPQFGTGTKLEVK
notes: variable heavy chain of 22A; variable light chain of 22A; IgG1; Vl kk4, JK5; From the human La transgenic mouse; also called Group 1 anti-La mab (22A); source: hybridoma cell culture supernatant
B5: binds [5].

B6: anti-La monoclonal antibody 2F9 (antibody, V domains shown)
VH: EVQLQESGPGILQPSQTLSLTCSFSGFSLSTSGMGVSWIRQPSGKGLEWLAHIYWDDDKGYNPSLKSRLTISKDTSRNQVFLKITSVDTADTATYYCARGDVEFDYWGQGTTLTVSS
VL: DIVLTQSTASLAVSLGQRATISCRASESVDSYGNSFMHWYQQKPGQPPKLLIYRASNLESGIPARFSGSGSRTDFTLTINPVEADDVATYYCQQSNEDPPTFGSGTKLEIK
notes: variable heavy chain of 2F9; variable light chain of 2F9; IgG1; Vl 21-5, JK4; From the human La transgenic mouse; also called Group 2 anti-La mab (2F9); source: hybridoma cell culture supernatant
B6: binds [2].

B7: anti-La monoclonal antibody 32A (antibody, V domains shown)
VH: EVQLQQSGAELARPGASVKLSCKASGYTFTTYGLTWVKQRTGQGLEWIGEIFPGSGTTFYNEKFNDKATLTADKSSSTAYMQLTSLTSEDSAVYFCARYSNYPYYFDYWGQGTTLTVSS
VL: B1 VL with D1Q, M4L, A9T, A59D
notes: variable heavy chain of 32A; variable light chain of 32A; IgG1; Vl aa4, JK1; From the human La transgenic mouse; also called Group 2 anti-La mab (32A); source: hybridoma cell culture supernatant
B7: binds [2].

B8: IgM type anti-La monoclonal antibody 16C (antibody, V domains shown)
VH: EVKLEESGPELVKPGSSVKISCKASGYTFTDYNMDWVKQSHGKSLEWIGAINPNNGGTSYNQKFKGKATLTVDKSSSTAYMELRSLTSEDSAVYYCARRDGGSYEWAMDYWGQGTSVTVSS
VL: DIVLTQSPASLSMAIGEKVTIRCITSTDIDDDMNWYQQKPGEPPKLLISEGNTLRPGVPSRFSSSGYGTDFVFTIENMLSEDVADYYCLQSDNLPLTFGGGTKLEIK
notes: variable heavy chain of 16C; variable light chain of 16C; IgM; Vl bt20, JK2; From the human La transgenic mouse; called polyreactive; also called anti-La mab (16C); source: hybridoma cell culture supernatant
B8: binds [6].

B9: recombinant antibody based on the mature 312B sequence (scFv fused on a human IgG4 hinge and Fc) (Fc fusion, mouse)
VH: B2 VH
VL: B2 VL
notes: linker, printed as (Gly4Ser)3; VH-VL orientation; an Igkappa leader peptide was fused to the N-terminus for secretion; vector p6NST50; source: stably transduced 3T3 cell line, purified from cell culture supernatant (protein A); not shown: hinge and Fc (CH2-CH3) of human IgG4, C-terminal, kept
B9: binds [7].

B10: recombinant antibody based on the germline 312B sequence (scFv fused on a human IgG4 hinge and Fc) (Fc fusion, mouse)
VH: QVQLQQSGAELMKPGASVKLSCKATGYTFTGYWIEWVKQRPGHGLEWIGEILPGSGSTNYNEKFKGKATFTADTSSNTAYMQLSSLTTEDSAIYYCARSRSIYDGYFDYWGQGTTLTVSS
VL: B2 VL with V3Q, T8P, T31S, R74K
notes: as for B9
B10: no binding [7].
